Reference: the DeepSol protein solubility set

Assay: soluble on expression in E. coli; label from the status in PepcDB or PDB records
With “MSLEVEVYRDPLSGFKDNKKSAPVKLNDEQQFALNQITAAIDKRKAETFLLEGITGSGKTEVYLHAISKALEQGRNALMLVPEISLTPQMVRQVKSRFGQAVAVLHSALSEGEKYDEWRRIRRGETRVVVGARSAVFAPLDNIGLIVIDEEHESSYKQETDPRYNARDVAIWRSKYHHCPLVLGSATPSLGSRARAQKNVYKLLRLTKRANNKKLPKVNLIDLKHVQFAGGQFDLSVNLVDAIKKRLDNKEQVILMLNRRGFANFMLCRECGFVLKCPNCDVSLNLHKDTNSMQCHYCGHTERVPSRCPNCQSSKIRFLGTGTQKVQEELEELLPGARILRMDVDTTRKKGSYKRILDSFGNHEADILLGTQMIAKGLDFPNVTLVGVINADTGLWLSDYNASEKTFELLTQVAGRAGRANKEGEVLIQTYNPEHYAIQLAQTQNYERFYGYEMNVRHAGNYPPYFFTVLISIAAKKEQNAAREAFRIKRYLSQHLHEEMIILGPTPSAISRVKNQYYYQILVKYKKEPNIKELLHHIQDSAQEAKKYGLNVFIDNEPEKIMEGHHHHHH” the “soluble on expression in E. coli” value was “not soluble”. For “LSKDILQLVGGEENVQRVIHCMTRLRFNLHDNAKADRSQLEQLPGVMGTNISGEQFQIIIGNDVPKVYQAIVRHSNLSDEKSAGSSSQKKNVLSAVFDVISG”, the “soluble on expression in E. coli” value was “not soluble”. In the case of “WLEPYMTSVASVKDLSKINLVEALNARLGWPLNQHLDEWLPEHYQLPTGTKKRIRYQHGHEPVLSVRMQEVFGESTSPTVALGRKRLVLELLSPAQRPLQVTSDLAAFWNGSYKDVQKEMKGRYPKHVWPDDPANHVATTKTKRQLNND”, the “soluble on expression in E. coli” value is reported as “not soluble”. With “MSLQFYSVQTNTLKLATTTFNAEGSMLLSTHWTLNLGFSYNPWNFSDTRKIKHFLIEPGARYWFWQTYAGSFISMYAMGARYNVAWDGLLGGDYRYQGWGYGAGMTYGRSWLLSKRWNMEVEAGLGLLVAPYTKYRCEHCGDKVKSGTYFLPTPKLAFNLVYLFEGHHHHHH” the “soluble on expression in E. coli” value was “not soluble”. In the case of “MSTRWYPIYQRGNPQLRVFLPNFWMKLIRPTEEQPPNVVTFSVSMEMTKYDVRNYLEKIYKLPVVDVRTRIAMGETKKDQTYGYITKKDDVKLAYVTLPREESFVFPDFFSEKAEKQAKEEKSLDESKAGFRRFLDRNKKRPGTPGWFSI”, the “soluble on expression in E. coli” value is reported as “not soluble”. With “EPRRPRAGPEELGKILQGVVVVLSGFQNPFRSELRDKALELGAKYRPDWTRDSTHLICAFANTPKYSQVLGLGGRIVRKEWVLDCHRMRRRLPSQRYLMAGPGSSSEEDEASHSGG” the “soluble on expression in E. coli” value was “soluble”. In the case of “MGSDKIHHHHHHMTLINKLKQHLSDSQITQAQLAREAGVNAGALSAYLNDNYKGNIADVEAKLAAYLEKKAVQAREFVEAPAFIETATSRQIFKTLEFAQIANCLATVYGMSGVGKTKAIQEFAKSHANVWLVTASPSRSSLSEILYEIALELGISDAPRRKGTLSRLIARKIKGTEGLLIVDEADHLPYEALEELRIMQEEAGIGLVLVGNDKVYTRMKGGISPSHEYARLWSRVAKNTSIQKTKKADTQAVAQAWGLETDEEALKVMQSITETGGGLRILTQTYACRNGSKRIWQVD”, the “soluble on expression in E. coli” value is reported as “not soluble”. With “MSLLTKSAENKRNRKDDSMRPGQQLTLSIDHQTDFGYFLTDGEDTILLHNSEMTEDIEDRDEVEVFIYVDQQERLAATMKIPIISADEYGWVEVVDKVEDMGVFVDVGLSKDALVATEHLPPYEDVWPQKGDKLYCMLKVTNRGRMFAKPAPEDIISELFTDASEDLMNKELTGTVYRLIASGSFVITDDGIRCFIHPSERKEEPRLGSRVTGRVIQVKEDGSVNLSLLPRKQDAMSVDAECILTYMRMRNGAMPYSDKSQPDDIRERFNMSKAAFKRALGHLMKNGKVYQENGWTYEKKEGGSHHHHHH” the “soluble on expression in E. coli” value was “soluble”. For “MADPIDNNSGKYTVQRFPAVADPADPGYSRCTTWVQAVSHGFHQQRRDDEYLAKTLTAYQTDKRELTGVYVNGSVPDHSLGADVPVATYATMRKALNIGFGRQLEAHLVTAVTVRGTHRRNGILRGMITADLEAAKDDGLAMAALTASEASIYGRFGFGVATFERSIKVDTGPRFRLRGLPQGTVEVADPSVLLDVAPQVFERLQRLSPGSIDRQEYYRLVASGSIGHDGKPDTSVRCALHYDLSGSLDGYVSYRFKGWDHKPYTMEIVDLVAASNAAYLDLWRFLGSIDLIDEVTWVEAPVDDPLAWALEDPRCIEASEIRDMLWLRILDTPAALQARSFPVAGRLVLEVTDSLGLAGGTWVLESDGGAAAVVKEAAGETPDLSLDAADLGSIYLGAVSPVTLAAAGRIQEKTPGAALLAQQLFAVERSAHCLTHF”, the “soluble on expression in E. coli” value was “soluble”. In the case of “MYGSEGGAMRIVAGVGENRNMERAASLADFEVDLVHSEEEFIEELRRGAAAYVRGSLPAANIMAELKKGGPLNRASWIEVGANGFLLAPVGIDEGRTVDDRFKIAVSASEFLRKTGEEPRVGVISGGRRGDLGRSPEVDRSIHEGEFLTSMIKDKYRVRHYHILIEEAVADGCNVIIAPDGITGNLIFRSLVLVGTARSYGAVALGFDGIFVDTSRSQTAEGYLRALKFAHWLARGWNEDNE”, the “soluble on expression in E. coli” value is reported as “soluble”. In the case of “MSLNINYPAEYEIGDKVFTCIGAALFGQISAASNCWSNHVGIIIGHNGEDFLVAESRVPLSTITTLSRFIKRSSNQRYAIKRLDAGLTEQQKQRIVEQVPSRLRKLYHTGFKYESSRQFCSKFVFDIYKEALCIPVGEIETFGELLNSNPNAKLTFWKFWFLGSIPWERKTVTPASLWHHPGLVLIHAEGVETPQPELTEAVEGHHHHHH”, the “soluble on expression in E. coli” value is reported as “not soluble”. In the case of “MVLFEKPGKENTRKTLEIAIQKASELSSKKLLIASATGYSARMALEMIPEDMKLVVVTHHAGFEEPDTQEFDEELRKLLKEKGHDVLTATHALSAGERSLRRKFGGIYPLEIIANTLRMFSEGVKVGVEITLMAADAGLVKTSELVVACGGTESGLDSAIVVKPANSPNLFDLKITEILCKPLIS”, the “soluble on expression in E. coli” value is reported as “soluble”. For “MSLRVIDTHCDALYKLQAGKGKYTFQDAEELDVNFERLIEAKMLLQGFAIFLDEDIPVEHKWKKAVEQVNIFKQHVLHKGGIIHHVKKWCDLENLPEDKIGAMLTLEGIEPIGRDLDKLTQLLDGGVLSVGLTWNNANLAADGIMEERGAGLTRFGKDIIHLLNERKVFTDVSHLSVKAFWETLEQAEFVIASHSSAKAICAHPRNLDDEQIKAMIEHDAMIHVIFHPLFTTNDGVADIEDVIRHIDHICELGGMKNIGFGSDFDGIPDHVKGLEHAGKYQNFLETLGKHYTKEEVEGFASRNFLNHLPKEGHHHHHH”, the “soluble on expression in E. coli” value was “soluble”. With “MRAASTSKPVGAHEETGHLGGAHSTYVSSAQVTNAEHENELQVVDLPRAPPSLSKAVTYFYITGFGRFALMEDNPTERVVLRLREILQDPGRVQMLHERLVRIVDLRILEVSAAAAHETLAEMKTQCLQMRQKPNISSDGRNRTVCFLHLGVDASADGFLVERSAVNEALFRFPDERGWQPTTPIPIVRGAQLGARYELDGEALASLCERTESLLNEWGRTNWTVRVNDDAGRFLCNYLFYLSAFEGLAENGHHLWQTFFLHCPMETVAPLDVQVDVVLAFMVAVAQSNAQQGPLEGILAR” the “soluble on expression in E. coli” value was “soluble”. In the case of “MAYQRIRQPKLSDVIEQELERLIVEGTLSPGQQLPPERELAKQFEVSRPSIREAIQRLEAKRLLTRRQGGGTFVSDRIWQSFSDPLLNLLSSHSETQLDLLEARHALEGICAYFAALRGTEEDFARIQHCVTRIAEAQALNNVDEEAERVMAFLIAITEAAHNVVLLHIVRSLSPLLEQNIRQNFKLLHRRPEAVEKVSKHRANIVDAIVSGQPEKAREMSHSHLAYIEETLLDLTREQTRRERSLRRIQQGNEPQ”, the “soluble on expression in E. coli” value is reported as “soluble”. With “STEDLLTYTLDEAERLTGSTLGFFDLISDDQSIMRSACSSNAKKDNCGHARHPIVINFKAPADVLQKKRAIIHNDHATLRHCNSKSVSHKEAIRELIVPVIRNGKVMAILEVGNKPANYDQNDIQLLNELSGVAWDIIARKHAEDSAQKTMK” the “soluble on expression in E. coli” value was “not soluble”. For “MGSDKIHHHHHHMKTAALFVSKEFEEEAIALVEGANYKVTSIYKLPKSPNVKFYIQYDKLQQIKNDEEISTLIIFEQLKPRHFINIRRELKGKEVLDKILLLLEIFALHAGSKEAKMQIELARLKYELPIIKETYTKSKIGEQQGPLGAGTYGVESTIKFYKRRINKLMKELESIKIFKEKSIESNKRNNIPSIGIVGYTNSGKTSLFNSLTGLTQKVDTKLFTTMSPKRYAIPINNRKIMLVDTVGFIRGIPPQIVDAFFVTLSEAKYSDALILVIDSTFSENLLIETLQSSFEILREIGVSGKPILVTLNKIDKINGDLYKKLDLVEKLSKELYSPIFDVIPISALKRTNLELLRDKIYQLATQLS”, the “soluble on expression in E. coli” value was “not soluble”. With “MEFSVKSGSPEKQRSACIVVGVFEPRRLSPIAEQLDKISDGYISALLRRGELEGKPGQTLLLHHVPNVLSERILLIGCGKERELDERQYKQVIQKTINTLNDTGSMEAVCFLTELHVKGRNNYWKVRQAVETAKETLYSFDQLKTNKSEPRRPLRKMVFNVPTRRELTSGERAIQHGLAIAAGIKAAKDLGNMPPNICNAAYLASQARQLADSYSKNVITRVIGEQQMKELGMHSYLAVGQGSQNESLMSVIEYKGNASEDARPIVLVGKGLTFDSGGISIKPSEGMDEMKYDMCGAAAVYGVMRMVAELQLPINVIGVLAGCENMPGGRAYRPGDVLTTMSGQTVEVLNTDAEGRLVLCDVLTYVERFEPEAVIDVATLTGACVIALGHHITGLMANHNPLAHELIAASEQSGDRAWRLPLGDEYQEQLESNFADMANIGGRPGGAITAGCFLSRFTRKYNWAHLDIAGTAWRSGKAKGATGRPVALLAQFLLNRAGFNGEE” the “soluble on expression in E. coli” value was “soluble”. For “MQGVKERFLPLGNSGDRAPRPPDGRGRVRPRTQDGVGNHTMARIPKTLKFVVVIVAVLLPVSPRRGPWLGKSAPGAGRGQGDGDTAGMPGPGHLRPGMSGQDELAVGVRGRTGSPGWAGGTRPRGSREAVPLAAPSPRREGSSRIERGRESRWNP”, the “soluble on expression in E. coli” value was “soluble”. With “MGSDKIHHHHHHMRLLSQVNLNSLKIVESAARHGNFTRAGEEQFITASAVSQRVKSLEDQLRFKIFQRGGNAVSLTPEGETYVSRVREALERIVAASMEATGQSQEHVLKISVLPTFAARWLFPRLPEFQRRYPDIVMRVSTSYATHEFSTSDFDLEIRYGDGHFNGLPSDLLFREDLTPVCSRKLFHEVLGDKPVSKVEPDDLRHFTLLHSDTCTQNWQSWLGFAGASFVLSETKSIYFDSCMMSYEAANAGMGFAVANRAYMASDIRAEKLVAPFAVHHPNSAGWYFVSPHKCLAARKVLLFKQWVMAEAALTQRQLDSEIRDLATEAV” the “soluble on expression in E. coli” value was “not soluble”. In the case of “MDLHSLCVDSHALRRDGMRFLHTADWQLGMTRHFLAGDAQPRYSAARRDAVAGLKALAADVGAEFVVVAGDVFEHNQLAPQIVGQSLEAMRVIGLPVYLLPGNHDPLDASSVYTSTLFRAERPDNVVVLDRAGVHEVRPGVQIVAAPWRSKAPTTDPVAEVLAGLPTDAAIRLLVAHGGVDALDPDHDKPSLIRLAALDDALTRQAIHYVALGDKHSLTQVGSSGRVWYSGAPEVTNFDDVEPDPGHVLVVDIDESDPRHPVTVDARRIGRWRFVTLHHQVDTSRDIADLDLNLDLMTDKDRTVVRLALTGSLTVTDRAALDTCLDKYARLFAWLGLWERHTDLAVIPVDAEFTDLGIGGFAAAAVDELVATARGGDDESAVDAQAALALLLRLADRGAALEHHHHHH”, the “soluble on expression in E. coli” value is reported as “soluble”. With “MNSFRWDIYFETGIEDVDDQHQYLVEFINKYGKLLTRNTISIADIQSALFELSRYAEFYFKEEENLMREVGIHHEHLQKHIQVHRTFMGDIVSMQSFINEDNRQSAEQLLDFLIHWLAYHILGIDQNMAKQIKAIERGVSPLEAYREQEQQANASTEP” the “soluble on expression in E. coli” value was “soluble”.
